From article PMC11570697, “2D4, a humanized monoclonal antibody targeting CD132, is a promising treatment for systemic lupus erythematosus” (Signal Transduction and Targeted Therapy, 2024)

Legend:
[1] = molecular target: human CD132 (common gamma chain cytokine receptor) (human) (UniProt P31785)
[2] = molecular target: human CD132 (common gamma chain cytokine receptor) (human, UniProt P31785); test: cell-based or functional assay
Sequence of human CD132 (common gamma chain cytokine receptor) (P31785 23-262): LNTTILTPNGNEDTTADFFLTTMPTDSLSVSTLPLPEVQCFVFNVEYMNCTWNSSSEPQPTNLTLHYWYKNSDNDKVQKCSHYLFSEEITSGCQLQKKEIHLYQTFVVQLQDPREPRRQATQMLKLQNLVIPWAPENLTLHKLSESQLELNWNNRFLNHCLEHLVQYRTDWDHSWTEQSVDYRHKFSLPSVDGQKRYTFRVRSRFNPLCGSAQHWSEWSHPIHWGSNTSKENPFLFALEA

Sequence of human CD132 (common gamma chain cytokine receptor) (human) (P31785 23-262): as above

Row | Molecule | maximum percent inhibition of IL-2-induced STAT5 phosphorylation in CD3+ T cells of human PBMCs (gradient dilutions, up to 200 nM antibody) [1] [%] | IC50 of blocking human IL-21: IFN-γ secretion by NK92 cells (ELISA), relative to REGN7257 [2] [fold] | IC50 of blocking human IL-21: STAT3 phosphorylation in CD3+ T cells of human PBMCs (flow cytometry), relative to REGN7257 [2] [fold]
1 | REGN7257, pan CD132 blocking monoclonal antibody | 100 | – | –
2 | 2D4, humanized anti-CD132 monoclonal antibody (antibody, V domains shown) VH: QVQLVQSGAEVKKPGSSVKVSCKTSGFNIEDIYLHWVRQAPGQGLEWMGRIDPANGKSNYDPKFQGRVTITADTSTSTAYMELSSLRSEDTAVYYCAALRFFGLDYWGQGTLVTVSS VL: EIVLTQSPATLSLSPGERATLSCRATSSVSYMYWYQQKPGQAPELLIYRTSNLASGIPARFSGSGSGTDYTLTISSLEPEDFAVYYCQQWSSNPPTFGQGTKLEIK | – | 10 | < 2
